Target: DNA (cytosine-5) methyltransferase (Homo sapiens, UniProt P26358 P26358:1-1616)
Assay: tritiated AdoMet methyl transfer, 37 C, HEPES pH 7.0, 50 mM NaCl, 75 uM spermine; methyl at short arm end stimulates rate
Conditions: tags: none; purified from human placenta (partially purified/crude preparation for the covalent complexes); gapped foldback with L5 linker loop
Experimental: For the determination of initial velocities with oligodeoxynucleotide substrates, the enzyme was dialyzed for 3 hours in a Hoefer microdialyzer (Health Products Inc., Rockford, Ill.) against 38 mM glycine, 17% v/v glycerol, 5 mM Tris, 10 mM β-mercaptoethanol, pH 7.8 at 4° C. The final reaction volume of 100 μl contained: 0.4 μg total DNA, 50 mM HEPES pH 7.0, 50 mM NaCl, 2 mM DTT, 75 μM Spermine, 10% v/v glycerol and […] [^3H]AdoMet (Amersham, 15 Ci/mmole). Reaction mixtures were preincubated at 37° C. for 15 minutes before the addition of 44 U of DNA methyltransferase to initiate the reaction. The reaction rate was linear under these conditions for 30 minutes. After 20 minutes of incubation, the reactions were stopped by the addition of 5 ml of cold TCA (5% w/v TCA containing 5 mM potassium pyrophosphate). Tritium incorporated into TCA insoluble DNA was determined as previously described (Smith, S. S., supra).

DNA (cytosine-5) methyltransferase, sequence (P26358 whole entry, one chain of several): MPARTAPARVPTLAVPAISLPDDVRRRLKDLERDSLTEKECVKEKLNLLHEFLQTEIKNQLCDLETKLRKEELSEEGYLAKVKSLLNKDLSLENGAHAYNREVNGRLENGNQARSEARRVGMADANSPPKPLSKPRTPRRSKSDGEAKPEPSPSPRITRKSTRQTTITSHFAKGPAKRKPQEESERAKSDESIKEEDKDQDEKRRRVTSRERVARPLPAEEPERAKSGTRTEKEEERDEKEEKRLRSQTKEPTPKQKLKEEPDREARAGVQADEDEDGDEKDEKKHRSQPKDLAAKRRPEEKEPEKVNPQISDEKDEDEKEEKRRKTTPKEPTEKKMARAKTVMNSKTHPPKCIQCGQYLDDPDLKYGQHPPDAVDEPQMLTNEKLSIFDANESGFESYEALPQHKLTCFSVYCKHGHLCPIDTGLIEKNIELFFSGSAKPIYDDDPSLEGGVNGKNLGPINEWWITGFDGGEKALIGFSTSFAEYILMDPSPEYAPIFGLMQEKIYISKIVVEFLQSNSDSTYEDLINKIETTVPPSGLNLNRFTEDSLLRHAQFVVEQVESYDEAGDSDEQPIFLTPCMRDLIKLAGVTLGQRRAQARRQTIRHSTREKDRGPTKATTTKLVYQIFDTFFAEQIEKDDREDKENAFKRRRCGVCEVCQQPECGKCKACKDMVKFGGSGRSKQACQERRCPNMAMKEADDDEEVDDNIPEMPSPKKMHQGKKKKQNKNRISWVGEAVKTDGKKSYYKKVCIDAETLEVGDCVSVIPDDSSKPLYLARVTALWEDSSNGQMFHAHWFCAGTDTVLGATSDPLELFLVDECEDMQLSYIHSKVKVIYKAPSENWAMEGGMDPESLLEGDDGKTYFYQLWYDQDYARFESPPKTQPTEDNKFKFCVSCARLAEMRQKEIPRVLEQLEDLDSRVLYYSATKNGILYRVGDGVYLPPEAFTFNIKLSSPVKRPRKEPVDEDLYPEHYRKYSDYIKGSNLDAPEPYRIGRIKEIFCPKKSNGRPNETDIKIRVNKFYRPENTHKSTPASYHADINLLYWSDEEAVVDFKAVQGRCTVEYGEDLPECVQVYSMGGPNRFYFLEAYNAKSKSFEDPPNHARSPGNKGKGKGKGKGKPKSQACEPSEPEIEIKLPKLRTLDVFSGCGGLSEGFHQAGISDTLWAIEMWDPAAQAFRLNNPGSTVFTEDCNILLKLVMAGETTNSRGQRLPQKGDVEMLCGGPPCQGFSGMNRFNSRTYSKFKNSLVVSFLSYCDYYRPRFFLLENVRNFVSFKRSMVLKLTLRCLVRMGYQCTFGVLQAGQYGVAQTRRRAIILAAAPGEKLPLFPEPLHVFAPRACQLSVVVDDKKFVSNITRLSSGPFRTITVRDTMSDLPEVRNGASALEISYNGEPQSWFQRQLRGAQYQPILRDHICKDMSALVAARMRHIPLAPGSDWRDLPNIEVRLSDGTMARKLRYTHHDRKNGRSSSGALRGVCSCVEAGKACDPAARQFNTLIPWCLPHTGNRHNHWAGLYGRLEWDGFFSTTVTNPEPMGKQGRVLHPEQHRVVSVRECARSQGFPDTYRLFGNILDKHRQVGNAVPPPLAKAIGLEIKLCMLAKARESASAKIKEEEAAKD

B1: 48L-1 (structured_DNA)
DNA: TCGAGGCCAGGTAGCCCGGATCTGGTGGACGTCCACCAGATCC
modifications: five non-nucleotide linker units between 30mer and 13mer; 5mC at end of short arm
  activity: > 100 fold stimulation
